# In patent US20250163162A1 (SYNTHEKINE, published 2025):
# B1: DR468(DR240-DR234) (bispecific antibody)
# chain: QVQLQESGGGSVQAGGSLRLSCGASGYTYSSYCMGWFRQVPGKEREGVAVIDSDGSTSYADSVKGRFTISKDNGKNTLYLQMNSLKPEDTAMYYCAADLGHYRPPCGVLYLGMDYWGKGTQVTVSSGGGSQVQLQESGGGSVQAGGSLRLSCVASGYTFSSYCMGWFRQAPGKEREGVAALGGGSTYYADSVKGRFTISQDNAKNTLYLQMNSLKPEDTAMYYCAAAWVACLEFGGSWYDLARYKHWGQGTQVTVSSASHHHHHH
# B2: DR392(DR229-DR236) (bispecific antibody)
# chain: QVQLQESGGGLVQPGGSLRLSCTASGFSFSSYPMTWARQAPGKGLEWVSTIASDGGSTAYAASVEGRFTISRDNAKSTLYLQLNSLKTEDTAMYYCTKGYGDGTPAPGQGTQVTVSSGGGSQVQLQESGGGSVQAGGSLRLSCAASRFTYSSYCMGWFRQAPGKEREGVASIDSDGSTSYTDSVKGRFTISKDNAKNTLYLQMNSLKPEDTAMYYCALDLMSTVVPGFCGFLLSAGMDYWGKGTQVTVSSASHHHHHH
# B3: DR444(DR236-DR234) (bispecific antibody)
# chain: QVQLQESGGGSVQAGGSLRLSCAASRFTYSSYCMGWFRQAPGKEREGVASIDSDGSTSYTDSVKGRFTISKDNAKNTLYLQMNSLKPEDTAMYYCALDLMSTVVPGFCGFLLSAGMDYWGKGTQVTVSSGGGSQVQLQESGGGSVQAGGSLRLSCVASGYTFSSYCMGWFRQAPGKEREGVAALGGGSTYYADSVKGRFTISQDNAKNTLYLQMNSLKPEDTAMYYCAAAWVACLEFGGSWYDLARYKHWGQGTQVTVSSASHHHHHH
# B4: DR466(DR240-DR232) (bispecific antibody)
# chain: QVQLQESGGGSVQAGGSLRLSCGASGYTYSSYCMGWFRQVPGKEREGVAVIDSDGSTSYADSVKGRFTISKDNGKNTLYLQMNSLKPEDTAMYYCAADLGHYRPPCGVLYLGMDYWGKGTQVTVSSGGGSQVQLQESGGGSVQAGGSLRLSCVASGYTSCMGWFRQAPGKEREAVATIYTRGRSIYYADSVKGRFTISQDNAKNTLYLQMNSLKPEDIAMYSCAAGGYSWSAGCEFNYWGQGTQVTVSSASHHHHHH
# B5: DR442(DR236-DR232) (bispecific antibody)
# chain: QVQLQESGGGSVQAGGSLRLSCAASRFTYSSYCMGWFRQAPGKEREGVASIDSDGSTSYTDSVKGRFTISKDNAKNTLYLQMNSLKPEDTAMYYCALDLMSTVVPGFCGFLLSAGMDYWGKGTQVTVSSGGGSQVQLQESGGGSVQAGGSLRLSCVASGYTSCMGWFRQAPGKEREAVATIYTRGRSIYYADSVKGRFTISQDNAKNTLYLQMNSLKPEDIAMYSCAAGGYSWSAGCEFNYWGQGTQVTVSSASHHHHHH
# B6: DR474(DR241-DR234) (bispecific antibody)
# chain: QVQLQESGGGSVQAGGSLRLSCAASGYSNCSYDMTWYRQAPGKEREFVSAIHSDGSTRYADSVKGRFFISQDNAKNTVYLQMNSLKPEDTAMYYCKTDPLHCRAHGGSWYSVRANYWGQGTQVTVSSGGGSQVQLQESGGGSVQAGGSLRLSCVASGYTFSSYCMGWFRQAPGKEREGVAALGGGSTYYADSVKGRFTISQDNAKNTLYLQMNSLKPEDTAMYYCAAAWVACLEFGGSWYDLARYKHWGQGTQVTVSSASHHHHHH
# B7: DR449(DR237-DR233) (bispecific antibody)
# chain: QVQLQESGGGSVQAGGSLRLSCAASGYTYSMYCMGWFRQAPGKEREGVAQINSDGSTSYADSVKGRFTISKDNAKNTLYLQMNSLKPEDTAMYYCAADSRVYGGSWYERLCGPYTYEYNYWGQGTQVTVSSGGGSQVQLQESGGGSVQAGGSLRLSCTASGFTFDDSDMGWYRQAPGNECELVSTISSDGSTYYADSVKGRFTISQDNAKNTVYLQMNSLKPEDTAVYYCAAEPRGYYSNYGGRRECNYWGQGTQVTVSSASHHHHHH
# B8: DR438(DR235-DR234) (bispecific antibody)
# chain: QVQLQESGGGSVQAGGSLRLSCAASRYLYSIDYMAWFRQSPGKEREPVAVIYTASGATFYPDSVKGRFTISQDNAKMTVYLQMNSLKSEDTAMYYCAAVRKTDSYLFDAQSFTYWGQGTQVTVSSGGGSQVQLQESGGGSVQAGGSLRLSCVASGYTFSSYCMGWFRQAPGKEREGVAALGGGSTYYADSVKGRFTISQDNAKNTLYLQMNSLKPEDTAMYYCAAAWVACLEFGGSWYDLARYKHWGQGTQVTVSSASHHHHHH
# Target: T1, IL10Rα/IL2Rγ receptor (human, UniProt Q13651 22-578; P31785 23-369)
# T1 sequence (looked up) 1: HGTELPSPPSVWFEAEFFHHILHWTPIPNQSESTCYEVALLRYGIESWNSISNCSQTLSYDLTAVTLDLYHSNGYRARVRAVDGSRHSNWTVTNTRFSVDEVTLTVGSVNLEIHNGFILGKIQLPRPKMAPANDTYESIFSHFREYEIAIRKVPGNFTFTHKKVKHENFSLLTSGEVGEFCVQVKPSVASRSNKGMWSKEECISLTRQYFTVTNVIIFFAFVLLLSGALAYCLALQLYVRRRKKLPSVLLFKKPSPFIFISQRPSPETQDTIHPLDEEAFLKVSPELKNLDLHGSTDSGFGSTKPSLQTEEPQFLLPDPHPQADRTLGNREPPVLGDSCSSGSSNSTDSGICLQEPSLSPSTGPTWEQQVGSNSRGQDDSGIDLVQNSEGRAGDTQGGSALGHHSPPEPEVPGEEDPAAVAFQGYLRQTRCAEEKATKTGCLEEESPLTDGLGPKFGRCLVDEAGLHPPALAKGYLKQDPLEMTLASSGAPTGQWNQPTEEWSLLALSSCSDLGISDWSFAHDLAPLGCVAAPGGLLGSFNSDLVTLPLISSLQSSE
# T1 sequence (looked up) 2: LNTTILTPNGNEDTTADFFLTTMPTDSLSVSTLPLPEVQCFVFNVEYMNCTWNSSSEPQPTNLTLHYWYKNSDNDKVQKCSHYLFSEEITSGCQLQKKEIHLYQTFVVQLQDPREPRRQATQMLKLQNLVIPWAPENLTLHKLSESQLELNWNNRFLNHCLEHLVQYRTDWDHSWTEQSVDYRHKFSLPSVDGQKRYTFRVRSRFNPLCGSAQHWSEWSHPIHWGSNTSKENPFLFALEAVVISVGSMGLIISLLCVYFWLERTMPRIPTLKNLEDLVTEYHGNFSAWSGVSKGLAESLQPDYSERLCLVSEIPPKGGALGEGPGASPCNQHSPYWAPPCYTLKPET
# Assay: cell-based or functional assay
Binder,"pSTAT3 MFI, B cells, 100 nM (unstimulated 1045) [MFI]","pSTAT3 MFI, CD4+ T cells, 100 nM (unstimulated 1778) [MFI]","pSTAT3 MFI, CD8+ T cells, 100 nM (unstimulated 1288) [MFI]","pSTAT3 MFI, Monocytes, 100 nM (unstimulated 1787) [MFI]","pSTAT3 MFI, NK cells, 100 nM (unstimulated 1149) [MFI]"
B1,1080,3520,2260,1860,1290
B2,1060,3340,2390,1890,1280
B3,1070,3700,2410,1830,1270
B4,1100,3170,2310,1870,1280
B5,1050,3110,2100,1790,1220
B6,1030,3770,2460,2320,1230
B7,1090,2700,1880,1880,1250
B8,1050,2780,1830,1810,1170
